Assay results: PMC3471927, “The PduQ Enzyme Is an Alcohol Dehydrogenase Used to Recycle NAD^+ Internally within the Pdu Microcompartment of Salmonella enterica” (PLoS ONE, 2012)

B1: PduQ-His6 (Salmonella enterica subsp. enterica serovar Typhimurium str. LT2) (protein)
chain: MNTFSLQTRLYSGQGSLAVLKRFTNKHIWIICDGFLAHSPLLDTLRNALPADNRISVFSEITPDPTIHTVVQGIAQMQALQPQVVIGFGGGSAMDAAKAIVWFSQQSGINIETCVAIPTTSGTGSEVTSACVISDPDKGIKYPLFNNALYPDMAILDPELVVSVPPQITANTGMDVLTHALEAWVSPRASDFTDALAEKAAKLVFQYLPTAVEKGDCVATRGKMHNASTLAGMAFSQAGLGLNHAIAHQLGGQFHLPHGLANALLLTTVIRFNAGVPRAAKRYARLAKACGFCPAEANDIAAINALIQQIELLKQRCVLPSLAVALKEGRSDFSARIPAMVQAALADVTLRTNPRPANAEAIRELLEELL
notes: full length, C-terminal His6 kept, pET-41a in E. coli BL21(DE3) RIL, anaerobic Ni-NTA

Columns and labels:
PduP = biological target: T1, PduP (Salmonella enterica, UniProt Q9XDN1); test: thioester formation at […] nm in purified Pdu MCPs; type: biochemical; settings: 10 mM propionaldehyde, 200 mM 1,2-propanediol, 40 µM NAD+, 100 µM HS-CoA, 100 mM sodium phosphate pH 7.0
T1 construct: native PduP within anaerobically purified Pdu microcompartments (wild-type and pduQ deletion strain BE903)

purified protein [1] = substrate: NC(=O)C1=CN([C@@H]2O[C@H](COP(=O)(O)OP(=O)(O)OC[C@H]3O[C@@H](n4cnc5c(N)ncnc54)[C@H](O)[C@@H]3O)[C@@H](O)[C@H]2O)C=CC1; test: purified protein; type: biochemical, Salmonella enterica; settings: 150 mM propionaldehyde, 100 mM sodium phosphate pH 7.0, anaerobic; pH 7.0
purified protein [2] = substrate: NC(=O)c1ccc[n+]([C@@H]2O[C@H](COP(=O)(O)OP(=O)(O)OC[C@H]3O[C@@H](n4cnc5c(N)ncnc54)[C@H](O)[C@@H]3O)[C@@H](O)[C@H]2O)c1; test: purified protein; type: biochemical, Salmonella enterica; settings: 800 mM 1-propanol, 100 mM Tris-HCl pH 9.0, anaerobic; pH 9.0
purified protein [3] = substrate: CCC=O; test: purified protein; type: biochemical, Salmonella enterica; settings: 0.4 mM NADH, 100 mM sodium phosphate pH 7.0, anaerobic; pH 7.0
purified protein [4] = substrate: CCCO; test: purified protein; type: biochemical, Salmonella enterica; settings: 2 mM NAD+, 100 mM Tris-HCl pH 9.0, anaerobic; pH 9.0

T1 sequence (Q9XDN1 whole entry): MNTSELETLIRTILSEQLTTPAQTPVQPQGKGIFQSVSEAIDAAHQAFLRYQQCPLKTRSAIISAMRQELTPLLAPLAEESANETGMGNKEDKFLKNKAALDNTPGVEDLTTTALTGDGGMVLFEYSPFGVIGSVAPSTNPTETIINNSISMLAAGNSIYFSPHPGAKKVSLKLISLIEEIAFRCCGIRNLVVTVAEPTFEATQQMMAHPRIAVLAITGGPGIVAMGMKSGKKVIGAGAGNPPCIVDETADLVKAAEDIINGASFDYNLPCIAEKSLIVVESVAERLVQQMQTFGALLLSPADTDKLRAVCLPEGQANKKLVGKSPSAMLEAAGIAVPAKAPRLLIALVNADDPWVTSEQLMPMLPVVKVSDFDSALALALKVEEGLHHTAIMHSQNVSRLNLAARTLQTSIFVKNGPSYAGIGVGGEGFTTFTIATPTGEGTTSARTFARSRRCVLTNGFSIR

Molecule	thioester formation at 232 nm in purified Pdu MCPs (PduP)	Km (purified protein [1])	Vmax (purified protein [1])	kcat (purified protein [1])	kcat/Km (purified protein [1])	Km (purified protein [2])	Vmax (purified protein [2])	kcat (purified protein [2])	kcat/Km (purified protein [2])	Km (purified protein [3])	Vmax (purified protein [3])	kcat (purified protein [3])	kcat/Km (purified protein [3])	Km (purified protein [4])	Vmax (purified protein [4])	kcat (purified protein [4])	kcat/Km (purified protein [4])
CCC=O [propionaldehyde]	no measureable PduP activity without added HS-CoA, NAD^+ or propionaldehyde	–	–	–	–	–	–	–	–	–	–	–	–	–	–	–	–
NC(=O)c1ccc[n+]([C@@H]2O[C@H](COP(=O)(O)OP(=O)(O)OC[C@H]3O[C@@H](n4cnc5c(N)ncnc54)[C@H](O)[C@@H]3O)[C@@H](O)[C@H]2O)c1 [NAD^+]	no measureable PduP activity without added HS-CoA, NAD^+ or propionaldehyde	–	–	–	–	–	–	–	–	–	–	–	–	–	–	–	–
B1	–	45.3 ± 5.3 µM	77.7 µmol/min/mg	52.2 s⁻¹	1.15e+06 M⁻¹ s⁻¹	267.5 ± 22.3 µM	9.2 µmol/min/mg	6.18 s⁻¹	23100 M⁻¹ s⁻¹	(16.0±2.0)×10^3 µM	81.3 µmol/min/mg	54.6 s⁻¹	3410 M⁻¹ s⁻¹	(95.8±9.2)×10^3 µM	8.4 µmol/min/mg	5.64 s⁻¹	58.9 M⁻¹ s⁻¹
